Measured values as given in the supplement of paper PMC11246515.
± gives the standard deviation of the averaged measurements.

Test: total protein half-life in vivo (active degradation + dilution); higher = more stable protein
[1] = wild type E. coli NCM3722, growth: C-lim chemostat, doubling time 12 h
[2] = E. coli NCM3722 delta-clpP delta-lon delta-hslV, growth: N-lim chemostat, doubling time 6 h
[3] = E. coli NCM3722 delta-hslV, growth: N-lim chemostat, doubling time 6 h
[4] = E. coli NCM3722 delta-smpB, growth: N-lim chemostat, doubling time 6 h
[5] = wild type E. coli NCM3722, growth: C-lim chemostat, doubling time 3 h
[6] = wild type E. coli NCM3722, growth: C-lim chemostat, doubling time 6 h
[7] = wild type E. coli NCM3722, growth: P-lim chemostat, doubling time 12 h
[8] = E. coli NCM3722 delta-clpP, growth: N-lim chemostat, doubling time 6 h
[9] = E. coli NCM3722 delta-lon, growth: N-lim chemostat, doubling time 6 h
[10] = wild type E. coli NCM3722, growth: N-lim chemostat, doubling time 6 h
[11] = wild type E. coli NCM3722, growth: N-lim chemostat, doubling time 12 h
[12] = wild type E. coli NCM3722, growth: P-lim chemostat, doubling time 6 h

Sequence	total protein half-life in vivo [1] [h]	total protein half-life in vivo [2] [h]	total protein half-life in vivo [3] [h]	total protein half-life in vivo [4] [h]	total protein half-life in vivo [5] [h]	total protein half-life in vivo [6] [h]	total protein half-life in vivo [7] [h]	total protein half-life in vivo [8] [h]	total protein half-life in vivo [9] [h]	total protein half-life in vivo [10] [h]	total protein half-life in vivo [11] [h]	total protein half-life in vivo [12] [h]
MKTKLMTLQDATGFFRDGMTIMVGGFMGIGTPSRLVEALLESGVRDLTLIANDTAFVDTGIGPLIVNGRVRKVIASHIGTNPETGRRMISGEMDVVLVPQGTLIEQIRCGGAGLGGFLTPTGVGTVVEEGKQTLTLDGKTWLLERPLRADLALIRAHRCDTLGNLTYQLSARNFNPLIALAADITLVEPDELVETGELQPDHIVTPGAVIDHIIVSQESK	8.54											
MNHSETITIECTINGMPFQLHAAPGTPLSELLREQGLLSVKQGCCVGECGACTVLVDGTAIDSCLYLAAWAEGKEIRTLEGEAKGGKLSHVQQAYAKSGAVQCGFCTPGLIMATTAMLAKPREKPLTITEIRRGLAGNLCRCTGYQMIVNTVLDCEKTK	3.5 ± 0.34	4.15	1.29	1.2	1.46 ± 0.069	2.29 ± 0.2	3.76					
MSKVTPQPKIGFVSLGCPKNLVDSERILTELRTEGYDVVPSYDDADMVIVNTCGFIDSAVQESLEAIGEALNENGKVIVTGCLGAKEDQIREVHPKVLEITGPHSYEQVLEHVHHYVPKPKHNPFLSLVPEQGVKLTPRHYAYLKISEGCNHRCTFCIIPSMRGDLVSRPIGEVLSEAKRLVDAGVKEILVISQDTSAYGVDVKHRTGFHNGEPVKTSMVSLCEQLSKLGIWTRLHYVYPYPHVDDVIPLMAEGKILPYLDIPLQHASPRILKLMKRPGSVDRQLARIKQWREICPELTLRSTFIVGFPGETEEDFQMLLDFLKEARLDRVGCFKYSPVEGADANALPDQVPEEVKEERWNRFMQLQQQISAERLQEKVGREILVIIDEVDEEGAIGRSMADAPEIDGAVYLNGETNVKPGDILRVKVEHADEYDLWGSRV [P0AEI4]	7.02 ± 1.1	4.5 ± 0.2	3.6 ± 0.089	2.94 ± 0.053	2.36 ± 0.54	4.39 ± 0.39	6.68 ± 0.64	2.28 ± 0.062	4.08 ± 0.84	3.47 ± 0.46	5.31 ± 0.15	4.37 ± 0.28
MKTYQGTHGVHILEYQSKINKLLCYLTNRYPRLIAVRVDLHYPKIVDNGDNICCFPNLEPGVISRMRESLRAKLEADRTRKVREDKRIYRCPLFIIWAKEYSESGKCHYHICLLFNKDAYYHLGDYDQDDNLRGMITGAWYSALRLERDDHPGLVHFPENCKYVLDTNSTDFQQNYQALLTRLDYLTKVESKVFGEGDRNFGCSQIEL	> 16											
MAGWFELSKSSDNQFRFVLKAGNGETILTSELYTSKTSAEKGIASVRSNSPQEERYEKKTASNGKFYFNLKAANHQIIGSSQMYATAQSRETGIASVKANGTSQTVKDNT	11.2 ± 0.74		6 ± 0.94	5.48 ± 0.5	3.2 ± 0.24	5.83 ± 0.21	11 ± 0.41	5.5 ± 0.46	6.31 ± 1.2	5.24 ± 0.059	9.51 ± 0.29	5.54 ± 0.092
MSSLPVAAVLPELLTALDCAPQVLLSAPTGAGKSTWLPLQLLAHPGINGKIILLEPRRLAARNVAQRLAELLNEKPGDTVGYRMRAQNCVGPNTRLEVVTEGVLTRMIQRDPELSGVGLVILDEFHERSLQADLALALLLDVQQGLRDDLKLLIMSATLDNDRLQQMLPEAPVVISEGRSFPVERRYLPLPAHQRFDDAVAVATAEMLRQESGSLLLFLPGVGEIQRVQEQLASRIGSDVLLCPLYGALSLNDQRKAILPAPQGMRKVVLATNIAETSLTIEGIRLVVDCAQERVARFDPRTGLTRLITQRVSQASMTQRAGRAGRLEPGISLHLIAKEQAERAAAQSEPEILQSDLSGLLMELLQWGCSDPAQMSWLDQPPVVNLLAAKRLLQMLGALEGERLSAQGQKMAALGNDPRLAAMLVSAKNDDEAATAAKIAAILEEPPRMGNSDLGVAFSRNQPAWQQRSQQLLKRLNVRGGEADSSLIAPLLAGAFADRIARRRGQDGRYQLANGMGAMLDANDALSRHEWLIAPLLLQGSASPDARILLALLVDIDELVQRCPQLVQQSDTVEWDDAQGTLKAWRRLQIGQLTVKVQPLAKPSEDELHQAMLNGIRDKGLSVLNWTAEAEQLRLRLLCAAKWLPEYDWPAVDDESLLAALETWLLPHMTGVHSLRGLKSLDIYQALRGLLDWGMQQRLDSELPAHYTVPTGSRIAIRYHEDNPPALAVRMQEMFGEATNPTIAQGRVPLVLELLSPAQRPLQITRDLSDFWKGAYREVQKEMKGRYPKHVWPDDPANTAPTRRTKKYS	9.65 ± 3.8	5.57 ± 0.07	3.91 ± 0.046	4.21 ± 0.25	2.8 ± 0.11	4.648 ± 0.041	9.09 ± 0.45	5.56 ± 0.99	4.29 ± 0.098	3.97 ± 0.26	6.433 ± 0.061	4.905 ± 0.044
MSTLEPAAQSKPPGGFKLWLSQLQMKHGRKLVIALPYIWLILLFLLPFLIVFKISLAEMARAIPPYTELMEWADGQLSITLNLGNFLQLTDDPLYFDAYLQSLQVAAISTFCCLLIGYPLAWAVAHSKPSTRNILLLLVILPSWTSFLIRVYAWMGILKNNGVLNNFLLWLGVIDQPLTILHTNLAVYIGIVYAYVPFMVLPIYTALIRIDYSLVEAALDLGARPLKTFFTVIVPLTKGGIIAGSMLVFIPAVGEFVIPELLGGPDSIMIGRVLWQEFFNNRDWPVASAVAIIMLLLLIVPIMWFHKHQQKSVGEHG	12 ± 1.7	6.86		5		5.16 ± 0.14	13.2 ± 1.9	4.75 ± 1.4		5.38	10.6 ± 0.24	6.7
MIELVIVSRLLEYPDAALWQHQQEMFEAIAASKNLPKEDAHALGIFLRDLTTMDPLDAQAQYSELFDRGRATSLLLFEHVHGESRDRGQAMVDLLAQYEQHGLQLNSRELPDHLPLYLEYLAQLPQSEAVEGLKDIAPILALLSARLQQRESRYAVLFDLLLKLANTAIDSDKVAEKIADEARDDTPQALDAVWEEEQVKFFADKGCGDSAITAHQRRFAGAVAPQYLNITTGGQH [P0AF26]		3.83 ± 0.37	0.814						2.04 ± 0.028			
MELLVLVWRQYRWPFISVMALSLASAALGIGLIAFINQRLIETADTSLLVLPEFLGLLLLLMAVTLGSQLALTTLGHHFVYRLRSEFIKRILDTHVERIEQLGSASLLAGLTSDVRNITIAFVRLPELVQGIILTIGSAAYLWMLSGKMLLVTAIWMAITIWGGFVLVARVYKHMATLRETEDKLYTDFQTVLEGRKELTLNRERAEYVFNNLYIPDAQEYRHHIIRADTFHLSAVNWSNIMMLGAIGLVFWMANSLGWADTNVAATYSLTLLFLRTPLLSAVGALPTLLTAQVAFNKLNKFALAPFKAEFPRPQAFPNWQTLELRNVTFAYQDNAFSVGPINLTIKRGELLFLIGGNGSGKSTLAMLLTGLYQPQSGEILLDGKPVSGEQPEDYRKLFSAVFTDVWLFDQLLGPEGKPANPQLVEKWLAQLKMAHKLELSNGRIVNLKLSKGQKKRVALLLALAEERDIILLDEWAADQDPHFRREFYQVLLPLMQEMGKTIFAISHDDHYFIHADRLLEMRNGQLSELTGEERDAASRDAVARTA	8.87		2.75	3.49 ± 2.1	3.11 ± 0.83		6.15	5.55 ± 0.68		3.39	6.04	
MATIDSMNKDTTRLSDGPDWTFDLLDVYLAEIDRVAKLYRLDTYPHQIEVITSEQMMDAYSSVGMPINYPHWSFGKKFIETERLYKHGQQGLAYEIVINSNPCIAYLMEENTITMQALVMAHACYGHNSFFKNNYLFRSWTDASSIVDYLIFARKYITECEERYGVDEVERLLDSCHALMNYGVDRYKRPQKISLQEEKARQKSREEYLQSQVNMLWRTLPKREEEKTVAEARRYPSEPQENLLYFMEKNAPLLESWQREILRIVRKVSQYFYPQKQTQVMNEGWATFWHYTILNHLYDEGKVTERFMLEFLHSHTNVVFQPPYNSPWYSGINPYALGFAMFQDIKRICQSPTEEDKYWFPDIAGSDWLETLHFAMRDFKDESFISQFLSPKVMRDFRFFTVLDDDRHNYLEISAIHNEEGYREIRNRLSSQYNLSNLEPNIQIWNVDLRGDRSLTLRYIPHNRAPLDRGRKEVLKHVHRLWGFDVMLEQQNEDGSIELLERCPPRMGNL	1.94 ± 0.49	4.27 ± 0.81	1.59 ± 0.2	1.49 ± 0.034	1.05 ± 0.18	1.49 ± 0.059	2.27 ± 0.67	2.4 ± 0.062	1.41 ± 0.15	1.48 ± 0.34	1.65 ± 0.15	1.48 ± 0.55
MKNVFKALTVLLTLFSLTGCGLKGPLYFPPADKNAPPPTKPVETQTQSTVPDKNDRATGDGPSQVNY [P0ADN6]	> 16	5.56 ± 0.35	6.91 ± 1.1	6.35 ± 0.59	2.95 ± 0.47	5.25 ± 1.2	11.8 ± 0.15	5.27 ± 1.1	6.29 ± 0.95	6.03 ± 1.2		
MAELSDQEMLRYNRQIILRGFDFDGQEALKDSRVLIVGLGGLGCAASQYLASAGVGNLTLLDFDTVSLSNLQRQTLHSDATVGQPKVESARDALTRINPHIAITPVNALLDDAELAALIAEHDLVLDCTDNVAVRNQLNAGCFAAKVPLVSGAAIRMEGQITVFTYQDGEPCYRCLSRLFGENALTCVEAGVMAPLIGVIGSLQAMEAIKMLAGYGKPASGKIVMYDAMTCQFREMKLMRNPGCEVCGQ	11.3 ± 0.97	5.3 ± 1.4	4.1 ± 0.1	4.36 ± 0.4	3.03 ± 0.46	6.09 ± 0.5	13.2 ± 1.6	4.37 ± 0.4	6.67 ± 1.7	4.66 ± 0.53	9.95	5.7448 ± 0.0056
MKVTLPEFERAGVMVVGDVMLDRYWYGPTSRISPEAPVPVVKVNTIEERPGGAANVAMNIASLGANARLVGLTGIDDAARALSKSLADVNVKCDFVSVPTHPTITKLRVLSRNQQLIRLDFEEGFEGVDPQPLHERINQALSSIGALVLSDYAKGALASVQQMIQLARKAGVPVLIDPKGTDFERYRGATLLTPNLSEFEAVVGKCKTEEEIVERGMKLIADYELSALLVTRSEQGMSLLQPGKAPLHMPTQAQEVYDVTGAGDTVIGVLAATLAAGNSLEEACFFANAAAGVVVGKLGTSTVSPIELENAVRGRADTGFGVMTEEELKLAVAAARKRGEKVVMTNGVFDILHAGHVSYLANARKLGDRLIVAVNSDASTKRLKGDSRPVNPLEQRMIVLGALEAVDWVVSFEEDTPQRLIAGILPDLLVKGGDYKPEEIAGSKEVWANGGEVLVLNFEDGCSTTNIIKKIQQDKKG	11.032 ± 0.011	5.6 ± 0.12	5.19 ± 0.094	5.15 ± 0.11	3.1 ± 0.062	5.74 ± 0.21	12.3 ± 0.15	5.98 ± 1.2	5.89 ± 0.14	5.3 ± 0.34	9.17 ± 0.1	5.82 ± 0.12
MTTKKADYIWFNGEMVRWEDAKVHVMSHALHYGTSVFEGIRCYDSHKGPVVFRHREHMQRLHDSAKIYRFPVSQSIDELMEACRDVIRKNNLTSAYIRPLIFVGDVGMGVNPPAGYSTDVIIAAFPWGAYLGAEALEQGIDAMVSSWNRAAPNTIPTAAKAGGNYLSSLLVGSEARRHGYQEGIALDVNGYISEGAGENLFEVKDGVLFTPPFTSSALPGITRDAIIKLAKELGIEVREQVLSRESLYLADEVFMSGTAAEITPVRSVDGIQVGEGRCGPVTKRIQQAFFGLFTGETEDKWGWLDQVNQ [P0AB80]	10.9 ± 0.13	4.699 ± 0.033	3.48 ± 0.06	3.75 ± 0.1	3.24 ± 0.089	5.63 ± 0.072	10.9 ± 0.95	4.25 ± 1.3	4.94 ± 1.1	3.49 ± 0.13	5.36 ± 0.066	5.65 ± 0.27
